# Assay results published in patent US11180733B2, “Method of generating mesenchymal stem cells and uses thereof” (AGENCY FOR SCIENCE, TECHNOLOGY AND RESEARCH, priority 2016, dated 2021).
# “Also recorded” adds a separate entry of the source.
# Columns and labels:
# BJC1-iPSCs = assay: Differentiation of PS-like mesendoderm towards lateral plate-like mesoderm (qPCR, cell number at day 10); type: cell-based, human
# Experimental: BJC1-iPSCs were differentiated towards mesoderm after 8 days of differentiation with indicated combination of FGF (20 ng/ml), Rock inhibitor Y27632 (5 uM) and Follistatin (100 ng/ml) in conjunction with the indicated signaling perturbations, qPCR was performed at day 10. […] BJC1-iPSCs were differentiated towards mesoderm after 8 days of differentiation with indicated combination of FGF (20 ng/ml), BMP4 (40 ng/ml), and Rock inhibitor Y27632 (5 uM) in conjunction with the indicated signaling perturbations, qPCR was performed at day 10. […] Mesoderm differentiation was induced with FGF (20 ng/ml), BMP4 (40 ng/ml), rock inhibitor Y27632 (5 μM, only used at the time of passage and remove the next day) and follistatin (100 ng/ml) for 8 days. Quantitative real-time PCR was performed with Taqman expression assay using ABI PRISM 7900HT sequence Detection System (Applied Biosystems). Briefly, […] of total RNA was converted to cDNA using high capacity cDNA archive kit in 30 μl and then diluted to 500 μl. Quantitative real-time PCR was done as follows: initial denaturation for 2 min at 50° C., 10 min at 95° C., following 40 cycles of PCR (95° C. for 15 s, 60° C. for 1 min) by using 5 μl of 2× Master mix, 0.5 μl of probe and 4.5 μl of cDNA. All probes were designed with a 5′ fluoregenic 6-carboxylfluorescein, and a 3′ quencher, tetramethyl-6-carboxyrhodamine. The expression of human GAPDH was used to normalize gene expression levels.
# [1] = system: human induced pluripotent stem cells (iPSCs); assay: Differentiation of iPSCs towards primitive streak (PS)-like mesendoderm (morphology, qPCR); type: cell-based
# Experimental: BJC1-iPSCs were differentiated towards primitive streak-like mesendoderm cells for 2 days with indicated combination of CHIR99021 (3 μM) and FGF (20 ng/ml) in conjunction with the indicated signaling perturbations, qPCR was performed at day 2. […] FIG. 9C represents data from FACS analysis showing more than 97% cells at day 2 were positive for primitive streak genes MIXL1, Brachyury (T) and GSC. FIG. 9D represents the immunofluoresence results at day 2 showing the expression of MIXL1, Brachyury (T) and GSC after 2 day of primitive streak induction.
# iPSCs from MRCS or BJ cell lines, or hESCs were differentiated into primitive streak-like mesendoderm cells and primitive streak mesendoderm cells respectively. Feeder-free iPSCs were maintained in mTeSR (Stem Cell Technologies) before differentiation. To differentiate iPSCs, iPSCs were digested with 1 mg/ml collagenase IV for 5-10 min at 37° C. into small clumps and placed on a fibronectin (FN, 10 μg/ml)-coated surface in medium containing activin A (25 ng/ml) and CHIR99021 (3 μM) for 1 day in a basal medium (DMEM: F12, 1% ITS, 2% B27, 2 mM L-Glutamine, 90 uM ß-mercaptoethanol), followed by Activin A (25 ng/ml), CHIR99021 (3 μM) and FGF (20 ng/ml) for subsequent 24 hours to differentiate toward primitive streak (PS)-like mesendoderm.
# Quantitative real-time PCR was performed with Taqman expression assay using ABI PRISM 7900HT sequence Detection System (Applied Biosystems). Briefly, […] of total RNA was converted to cDNA using high capacity cDNA archive kit in 30 μl and then diluted to 500 μl. Quantitative real-time PCR was done as follows: initial denaturation for 2 min at 50° C., 10 min at 95° C., following 40 cycles of PCR (95° C. for 15 s, 60° C. for 1 min) by using 5 μl of 2× Master mix, 0.5 μl of probe and 4.5 μl of cDNA. All probes were designed with a 5′ fluoregenic 6-carboxylfluorescein, and a 3′ quencher, tetramethyl-6-carboxyrhodamine. The expression of human GAPDH was used to normalize gene expression levels.
# [2] = compared with wnt3a (ACF vs AWF)
# [3] = with FGF 20 ng/ml, BMP4 40 ng/ml, Y27632 5 uM, qPCR at day 10
molecule,measurement,setting,value
"C[C@@H](N)[C@H]1CC[C@H](C(=O)Nc2ccncc2)CC1.Cl.Cl [Y27632, (R)-(+)-trans-4-(1-Aminoethyl)-N-(4-Pyridyl)cyclohexanecarboxamide dihydrochloride, reference compound]",expression of lateral plate mesoderm genes Hand1 and FOXF1,"BJC1-iPSCs; compared to NT4, dihydrochloride",increased the expression of lateral plate mesoderm genes Hand1 and FOXF1; also recorded: significantly increases the expression of lateral plate mesoderm genes
same,increase in cell number,"BJC1-iPSCs; compared with neurotrophi-4 (NT), day 10",3.53±1.56 fold
FGF: fibroblast growth factor; in one specific example FGF2,differentiation toward PS-like mesendoderm,[1]; addition of FGF at day 2,did not further enhance differentiation toward PS-like mesendoderm
same,expression of mesoderm,[1]; in the presence of FGF at day 2,expression of mesoderm increased
"Cc1cnc(-c2cnc(NCCNc3ccc(C#N)cn3)nc2-c2ccc(Cl)cc2Cl)[nH]1 [CHIR99021, 6-[2-[[4-(2,4-dichlorophenyl)-5-(5-methyl-1H-imidazol-2-yl)pyrimidin-2-yl]amino]ethylamino]pyridine-3-carbonitrile, reference compound]",adherence of iPSCs to the dish,[1]; [2],promoted the adherence of iPSCs to the dish
same,differentiation toward PS-like mesendoderm,[1]; [2],promoted differentiation toward PS-like mesendoderm
"follistatin: protein encoded by the FST gene (protein, UniProt P19883 30-344, looked up) Follistatin: GNCWLRQAKNGRCQVLYKTELSKEECCSTGRLSTSWTEEDVNDNTLFKWMIFNGGAPNCIPCKETCENVDCGPGKKCRMNKKNKPRCVCAPDCSNITWKGPVCGLDGKTYRNECALLKARCKEQPELEVQYQGRCKKTCRDVFCPGSSTCVVDQTNNAYCVTCNRICPEPASSEQYLCGNDGVTYSSACHLRKATCLLGRSIGLAYEGKCIKAKSCEDIQCTGGKKCLWDFKVGRGRCSLCDELCPDSKSDEPVCASDNATYASECAMKEAACSSGVLLEVKHSGSCNSISEDTEEEEEDEDQDYSFPISSILEW",expression of lateral plate mesoderm genes Hand1 and FOXF1 and mesenchymal stem cell genes CD44 and CD105,"BJC1-iPSCs; presence compared to absence of Follistatin, qPCR at day 10",significantly increases the expression
same,endodermal differentiation Sox17 and FOXA1,BJC1-iPSCs; [3],inhibited endodermal differentiation
same,mesodermal differentiation,BJC1-iPSCs; [3],promoting mesodermal differentiation
"noggin: antagonism of BMP signaling (protein, UniProt Q13253 28-232, looked up) Noggin: QHYLHIRPAPSDNLPLVDLIEHPDPIFDPKEKDLNETLLRSLLGGHYDPGFMATSPPEDRPGGGGGAAGGAEDLAELDQLLRQRPSGAMPSEIKGLEFSEGLAQGKKQRLSKKLRRKLQMWLWSQTFCPVLYAWNDLGSRFWPRYVKVGSCFSKRSCSVPEGMVCKPSKSVHLTVLRWRCQRRGGQRCGWIPIQYPIISECKCSC",expression of ectodermal gene Sox1,"BJC1-iPSCs; in the absence of BMP4 or in the presence of noggin, qPCR at day 10",38.65 fold
"BMP4: bone morphogenetic protein (protein, UniProt P12644 293-408, looked up) Bone morphogenetic protein 4: SPKHHSQRARKKNKNCRRHSLYVDFSDVGWNDWIVAPPGYQAFYCHGDCPFPLADHLNSTNHAIVQTLVNSVNSSIPKACCVPTELSAISMLYLDEYDKVVLKNYQEMVVEGCGCR",BMP4 concentration that led to the highest expression of lateral plate mesoderm markers,"BJC1-iPSCs; with FGF 20 ng/ml, Y27632 5 uM, Follistatin 100 ng/ml, qPCR at day 10",40 ng/mL
"activin A: Activin A formed by two activin βA subunits, member of the TGF-β superfamily (protein, UniProt P08476 311-426, looked up, Inhibin beta A chain) Inhibin beta A chain: GLECDGKVNICCKKQFFVSFKDIGWNDWIIAPSGYHANYCEGECPSHIAGTSGSSLSFHSTVINHYRMRGHSPFANLKSCCVPTKLRPMSMLYYDDGQNIIKKDIQNMIVEECGCS","differentiation towards PS-like mesendoderm expressing T, MIXL1 and GSC","[1]; activin 25-100 ng/ml with CHIR99021 3 μM and FGF 20 ng/ml, qPCR at day 2",enhanced differentiation towards PS-like mesendoderm
same,expression of endodermal marker Sox17,"[1]; activin 25-100 ng/ml, qPCR at day 2",increased with the dose
same,activin A concentration at which the ratio of increased MIXL1 or T to Sox17 was the highest,[1]; qPCR at day 2,25 ng/mL
